This is an account of results in doi:10.1101/2024.12.23.630100 (bioRxiv, 2024).

The target in assay [1] is T1, SHP2 tandem domain N-SH2-C-SH2-SHP2 1-222 (human, UniProt Q06124 1-222).
T1 sequence (looked up): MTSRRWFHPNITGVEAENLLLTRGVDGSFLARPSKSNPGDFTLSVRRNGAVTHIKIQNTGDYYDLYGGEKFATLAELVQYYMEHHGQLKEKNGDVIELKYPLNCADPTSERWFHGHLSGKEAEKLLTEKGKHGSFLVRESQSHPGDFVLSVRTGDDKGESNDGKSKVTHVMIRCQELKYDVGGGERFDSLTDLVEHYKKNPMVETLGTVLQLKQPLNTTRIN
As to the kind of experiment: ITC. In general terms: ITC needs no label: the signal is the heat of the interaction.

Assay [2] has as its target T2, SHP2 C-SH2 domain 102-220 (human, UniProt Q06124 102-220).
T2 sequence (looked up): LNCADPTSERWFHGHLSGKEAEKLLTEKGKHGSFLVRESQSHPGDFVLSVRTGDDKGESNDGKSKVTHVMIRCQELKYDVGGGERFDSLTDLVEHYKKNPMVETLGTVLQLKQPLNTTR
As to the kind of experiment: ITC.

Square brackets hold non-standard residues; d marks the D form. Ends that are not written are not given here. pY = N[C@@H](Cc1ccc(OP(=O)(O)O)cc1)C(=O)O

B1: pY627pY659-Gab1 613-694 (bis-phosphorylated fragment of Grb2-associated binding protein 1) (peptide, UniProt Q13480 613-694, looked up)
chain: SSPMIKPKGDKQVEYLDLDLDSGKSTPPRKQKSSGSGSSVADERVDYVVVDQQKTLALKSTREAWTDGRQSTESETPAKSVK
modifications: phosphotyrosine at 627 and 659
The Kd is the constant that tells how readily two partners part at equilibrium. In assay [1], B1 displayed a dissociation constant (Kd) of 37 ± 13 nM.

ERVD[pY]VVVDQQKTLALKSTREAW (peptide, UniProt Q13480 655-677, looked up) [pY659-Gab1 655-677 monophosphorylated peptide] showed a Kd in assay [2] of 4000 nM.

Turning to ERVD[pY]VVVDQQK (peptide, UniProt Q13480 655-666, looked up) [pY659-Gab1 655-666 monophosphorylated peptide (C-terminally truncated)], the “fold reduction of affinity against pY659-Gab1 655-677” value in assay [2] stood at 10 fold.
